Assay results: patent publication CN116514962A (THE AFFILIATED HOSPITAL OF GUANGZHOU MEDICAL UNIV GUANGZHOU …, dated 2023)

B1: N31抗体 (N蛋白特异性单克隆抗体N31) (antibody, V domains shown)
VH: QMQLVQSGAEVKKPGSSVKVSCKASGGTFSSYGISWVRQAPGQGLEWMGGIIPILGTANYAQRFQGRIALTADESTSTAYMEVSSLRSEDTAVYYCARGMWSNPPGYCCSYMDVWGKGTTVTVSS
VL: EIVLTQSPATLSVSPGERVTLACRASQSLRSKLAWYQQKPGQAPRLLIYDASTRATGFPARFSGSGSGTEFTLTISSLQSEDFAVYYCQQYSNWPRTFGQGTKLEIK
B2: 3B7抗体 (N蛋白特异性单克隆抗体3B7) (antibody, V domains shown)
VH: QMQLVQSGAEVKKPGASVRVSCKVSGYSLTELPMHWVRQAPGKGLEWVGSFDPQDAETTYAQRFQGRVAMTEDTSTDTAYMELSSLRSEDTAVYYCATPAPTIVGVVIYALHIWGQGTMVTVSS
VL: EIVLTQSPGTLSLSPGERATLSCRASQRVSDNSLAWYQQKPGQAPSLLIFAASIRAPGIPDRISGTGSGTDFTLTINRLEPEDFVVYFCLQYTTSPPLTFGGGTKLEIK
B3: N5抗体 (N蛋白特异性单克隆抗体N5) (antibody, V domains shown)
VH: QVQLVQSGAEVKKPGSSVKVSCKASGGTFSSYAIGWVRQAPGQGLEWMGAIIPIFGTTIFAQKFQGRVTITADESTTTAYMELSSLRSDDTAVYYCARGGGGVERGVILTRWFDPWGQGTLVTVSS
VL: QSVLTQPPSVSAAPGQKVTLSCSGSSSNIGNNHVSWYQQLPGTAPKLLIYDNNKRPSGIPDRFSGSKSGTSATLGITGLQTGDEADYYCGTWDNSLSAGVFGGGTKLTVV
B4: N83抗体 (N蛋白特异性单克隆抗体N83) (antibody, V domains shown)
VH: QVQLQESGPRLVKSSETLSLTCTVSGGSISSGSYYWNWIRQPAGKGLEWIGRVYISGVTSYNPSLKSRVTISLDISKNQFSLQLTSVTAADSAVYYCARGGMAVGAPLYYYFYGMDVWGQGTTVTVSS
VL: DVVMTQSPLSLPVTPGEPASISCRSSQSLLHSNGYNYVDWYLQKPGQSPQLMIYLGSNRASGVPDRFSGSGSGTHFTLKISRVEAEDVGVYYCMQALQTLSITFGQGTRLEIK
B5: N3抗体 (N蛋白特异性单克隆抗体N3) (antibody, V domains shown)
VH: QMQLVQSGAEVKRPGSSVKVSCKASGGTFSVYAISWVRQAPGQGLEWMGGIIPIFGTANYAQKFQGRVTLTADESTSTAYMELSSLSSEDTAVYYCARGGYCSGANCPKWGEWSHSYNYMDVWGKGTTVTVSS
VL: not shown

What follows are binders tested against 新型冠状病毒(SARS-CoV-2)N蛋白 (SARS-CoV-2, UniProt P0DTC9 1-419) (assay: not given).

Row | Binder | Kd [nM]
1 | B1 | < 0.001
2 | B2 | 1.94
3 | B3 | < 0.001
4 | B4 | 1.76

Each binder was assayed against MERS病毒N蛋白 (MERS病毒 (MERS-CoV), UniProt K9N4V7 1-411) (assay: ELISA).

Row | Binder | binding result
5 | B1 | no binding
6 | B5 | no binding
7 | B2 | no binding
8 | B3 | no binding
9 | B4 | no binding

These binders were tested against T1, 人冠状病毒OC43 N蛋白 (人冠状病毒OC43 (HCoV-OC43), UniProt P33469 1-448) (assay: ELISA).
T1 sequence: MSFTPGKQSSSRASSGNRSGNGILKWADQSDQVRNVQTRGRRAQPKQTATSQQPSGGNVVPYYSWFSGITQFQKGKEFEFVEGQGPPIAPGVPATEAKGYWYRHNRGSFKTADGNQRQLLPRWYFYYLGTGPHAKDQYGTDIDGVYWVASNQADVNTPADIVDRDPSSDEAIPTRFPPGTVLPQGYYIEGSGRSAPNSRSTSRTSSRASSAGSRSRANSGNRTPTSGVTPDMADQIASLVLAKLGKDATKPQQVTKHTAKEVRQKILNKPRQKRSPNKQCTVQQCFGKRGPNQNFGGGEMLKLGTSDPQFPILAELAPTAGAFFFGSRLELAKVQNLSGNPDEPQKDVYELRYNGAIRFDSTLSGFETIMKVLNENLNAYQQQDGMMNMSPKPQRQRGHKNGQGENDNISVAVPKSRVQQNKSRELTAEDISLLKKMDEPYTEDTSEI

Row | Binder | binding result
10 | B1 | no binding
11 | B5 | no binding
12 | B2 | no binding
13 | B3 | no binding
14 | B4 | no binding

The binders below were run against T2, 人冠状病毒HKU1 N蛋白 (人冠状病毒HKU1 (HCoV-HKU1), UniProt Q5MQC6 1-441) (assay: ELISA).
T2 sequence: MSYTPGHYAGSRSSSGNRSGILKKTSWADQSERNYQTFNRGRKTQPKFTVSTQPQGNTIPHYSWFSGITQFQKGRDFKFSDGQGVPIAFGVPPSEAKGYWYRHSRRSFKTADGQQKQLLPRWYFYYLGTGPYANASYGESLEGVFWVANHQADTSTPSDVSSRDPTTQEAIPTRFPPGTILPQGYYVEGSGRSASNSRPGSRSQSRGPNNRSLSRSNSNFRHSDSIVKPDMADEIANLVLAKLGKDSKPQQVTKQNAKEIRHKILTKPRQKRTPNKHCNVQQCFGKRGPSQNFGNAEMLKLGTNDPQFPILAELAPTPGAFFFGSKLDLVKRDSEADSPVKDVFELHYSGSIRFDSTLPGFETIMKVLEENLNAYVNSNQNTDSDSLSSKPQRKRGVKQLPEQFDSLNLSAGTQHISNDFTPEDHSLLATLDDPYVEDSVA

Row | Binder | binding result
15 | B1 | no binding
16 | B5 | no binding
17 | B2 | no binding
18 | B3 | no binding
19 | B4 | no binding

These binders were tested against SARS病毒N蛋白 (SARS病毒 (SARS-CoV), UniProt P59595 1-422) (assay: ELISA).

Row | Binder | binding result
20 | B1 | binds
21 | B5 | binds
22 | B2 | binds
23 | B3 | binds
24 | B4 | binds
